Legend:
hRPA;RPAIN = hRPA;RPAIN (human;human, UniProt P27694;P15927;P35244;Q86UA6 1-616;1-270;1-121;1-219, |); test: EMSA
hRPA = hRPA (human, UniProt P27694;P15927;P35244 1-616;1-270;1-121); test: EMSA
Sequence of hRPA (P27694 whole entry, chain 1 of 3): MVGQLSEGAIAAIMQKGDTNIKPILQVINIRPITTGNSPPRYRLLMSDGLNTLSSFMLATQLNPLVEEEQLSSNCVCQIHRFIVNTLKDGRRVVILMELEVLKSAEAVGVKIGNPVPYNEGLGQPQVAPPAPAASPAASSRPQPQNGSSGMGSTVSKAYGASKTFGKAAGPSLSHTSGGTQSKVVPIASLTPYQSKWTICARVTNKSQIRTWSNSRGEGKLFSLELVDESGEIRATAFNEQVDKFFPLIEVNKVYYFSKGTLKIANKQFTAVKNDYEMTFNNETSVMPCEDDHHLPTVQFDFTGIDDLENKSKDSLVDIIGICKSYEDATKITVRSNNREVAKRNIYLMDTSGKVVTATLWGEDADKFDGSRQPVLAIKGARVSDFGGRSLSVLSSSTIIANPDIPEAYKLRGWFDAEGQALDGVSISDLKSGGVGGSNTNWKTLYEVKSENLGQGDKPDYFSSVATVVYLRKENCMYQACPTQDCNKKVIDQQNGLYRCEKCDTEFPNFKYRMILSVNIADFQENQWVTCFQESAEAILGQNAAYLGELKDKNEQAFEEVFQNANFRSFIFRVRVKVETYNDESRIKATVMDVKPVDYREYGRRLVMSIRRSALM
Sequence of hRPA (P15927 whole entry, chain 2 of 3): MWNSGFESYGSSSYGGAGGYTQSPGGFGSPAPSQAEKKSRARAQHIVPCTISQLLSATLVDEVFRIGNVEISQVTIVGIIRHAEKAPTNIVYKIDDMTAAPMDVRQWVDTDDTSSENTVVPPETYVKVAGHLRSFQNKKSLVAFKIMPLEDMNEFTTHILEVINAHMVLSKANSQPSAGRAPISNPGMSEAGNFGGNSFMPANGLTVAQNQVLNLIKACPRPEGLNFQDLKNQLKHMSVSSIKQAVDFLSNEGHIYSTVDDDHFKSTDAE
Sequence of hRPA (P35244 whole entry, chain 3 of 3): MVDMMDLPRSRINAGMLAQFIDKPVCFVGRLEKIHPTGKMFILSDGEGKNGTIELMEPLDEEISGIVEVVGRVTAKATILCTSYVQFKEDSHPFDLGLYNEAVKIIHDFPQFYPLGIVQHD

Sequence of hRPA;RPAIN (P27694 whole entry, chain 1 of 4): as the sequence (P27694 whole entry, chain 1 of 3) above
Sequence of hRPA;RPAIN (P15927 whole entry, chain 2 of 4): as the sequence (P15927 whole entry, chain 2 of 3) above
Sequence of hRPA;RPAIN (P35244 whole entry, chain 3 of 4): as the sequence (P35244 whole entry, chain 3 of 3) above
Sequence of hRPA;RPAIN (Q86UA6 whole entry, chain 4 of 4): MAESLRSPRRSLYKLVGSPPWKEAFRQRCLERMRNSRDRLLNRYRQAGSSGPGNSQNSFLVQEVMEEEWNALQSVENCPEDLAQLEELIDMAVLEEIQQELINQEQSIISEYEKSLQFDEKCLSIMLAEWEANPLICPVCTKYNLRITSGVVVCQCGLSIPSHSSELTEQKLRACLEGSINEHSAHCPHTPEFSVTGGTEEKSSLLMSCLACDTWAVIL

B1: 5'-Cy5-(dT)30 (ssDNA)
DNA: TTTTTTTTTTTTTTTTTTTTTTTTTTTTTT
Binder B1 has a Kd (hRPA;RPAIN) of 0.0118 µM and a Kd (hRPA) of 0.0105 µM.
